This data set deals with IKK-phosphorylated IκBα in the IκBα/NF-κB complex.
Sequence of IKK-phosphorylated IκBα in the IκBα/NF-κB complex (chain, as listed by the source): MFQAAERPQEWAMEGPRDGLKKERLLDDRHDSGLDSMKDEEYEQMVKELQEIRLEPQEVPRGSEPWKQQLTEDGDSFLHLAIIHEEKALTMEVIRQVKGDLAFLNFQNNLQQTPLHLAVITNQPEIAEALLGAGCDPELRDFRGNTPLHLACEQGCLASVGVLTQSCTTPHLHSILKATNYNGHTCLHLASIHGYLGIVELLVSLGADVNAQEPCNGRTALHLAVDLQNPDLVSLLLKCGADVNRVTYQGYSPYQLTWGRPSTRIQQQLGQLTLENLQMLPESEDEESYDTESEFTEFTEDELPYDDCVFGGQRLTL

As for Drosophila Slimb protein, FLAG-tagged, the in vitro ubiquitination of pIκBα in the presence of E1 and E2 (UBC5C), efficiency against human and mouse β-TrCP (fold less efficient) was more than 10.

The record behind these values is US20030166587.
